Measurements published in publication PMC9762252.

Test system: O=C(O)C(=O)/C=C/c1ccccc1O
Experiment: purified protein
Conditions: 50 mM Na2HPO4 pH 7.2, 22 °C

Substance | Km [µM] | kcat [s⁻¹] | kcat/Km [M⁻¹ s⁻¹]
NahE (His-tag NahE) (Pseudomonas putida; N157A) | 8 ± 1 | 0.13 | 16000
NahE (His-tag NahE) (Pseudomonas putida; N157L) | 60 ± 10 | 0.6 | 10000
NahE (His-tag NahE) (Pseudomonas putida; T65S) | 1.7 ± 0.3 | 0.0085 | 5000
NahE (His-tag NahE) (Pseudomonas putida; T65V) | 21 ± 8 | 0.004 | 190
NahE (His-tag NahE) (Pseudomonas putida; W128F) | 8 ± 2 | 8 | 1e+06
NahE (His-tag NahE) (Pseudomonas putida; W128Y) | 7 ± 1 | 5 | 700000
NahE (His-tag NahE) (Pseudomonas putida; Y155F) | 4 ± 1 | 0.004 | 1000
